Key:
[1] = molecular target: human CEACAM6, full-length, on cells (human) (UniProt P40199); assay: FACS, 5 µg/ml, KS cells
[2] = molecular target: human CEACAM6, full-length, on cells (human) (UniProt P40199); assay: FACS, 5 µg/ml, A549 cells
[3] = molecular target: human CEACAM6, full-length, on cells (human) (UniProt P40199); assay: FACS, 5 µg/ml, HPAC cells
[4] = molecular target: human CEACAM6, full-length, on cells (human) (UniProt P40199); assay: FACS, 5 µg/ml, HT29 cells
[5] = molecular target: human CEACAM6, full-length, on cells (human) (UniProt P40199); assay: FACS, 5 µg/ml, HT55 cells
[6] = molecular target: human CEACAM6, full-length, on cells (human) (UniProt P40199); assay: FACS, 5 µg/ml, LoVo cells
[7] = molecular target: human CEACAM6, full-length, on cells (human) (UniProt P40199); assay: FACS, 5 µg/ml, MCF7 cells
[8] = molecular target: human CEACAM6, full-length, on cells (human) (UniProt P40199); assay: FACS, 5 µg/ml, WiDr cells
[9] = molecular target: human CEACAM6, full-length, on cells (human) (UniProt P40199); assay: FACS, 5 µg/ml, BxPc3 cells
[10] = molecular target: human CEACAM6, full-length, on cells (human) (UniProt P40199); assay: FACS, 5 µg/ml, CL-34 cells
[11] = molecular target: human CEACAM6, full-length, on cells (human) (UniProt P40199); assay: FACS, 5 µg/ml, DAN-G cells
[12] = molecular target: human CEACAM6, full-length, on cells (human) (UniProt P40199); assay: FACS, 5 µg/ml, KM-12 cells
[13] = molecular target: human CEACAM6, full-length, on cells (human) (UniProt P40199); assay: FACS, 5 µg/ml, SNU-1 cells
[14] = molecular target: human CEACAM6, full-length, on cells (human) (UniProt P40199); assay: FACS, 5 µg/ml, T-47D cells
[15] = molecular target: human CEACAM6, full-length, on cells (human) (UniProt P40199); assay: FACS, 5 µg/ml, AsPC-1 cells
[16] = molecular target: human CEACAM6, full-length, on cells (human) (UniProt P40199); assay: FACS, 5 µg/ml, BT-474 cells
[17] = molecular target: human CEACAM6, full-length, on cells (human) (UniProt P40199); assay: FACS, 5 µg/ml, Calu-3 cells
[18] = molecular target: human CEACAM6, full-length, on cells (human) (UniProt P40199); assay: FACS, 5 µg/ml, HCC827 cells
[19] = molecular target: human CEACAM6, full-length, on cells (human) (UniProt P40199); assay: FACS, 5 µg/ml, HPAFII cells
[20] = molecular target: human CEACAM6, full-length, on cells (human) (UniProt P40199); assay: FACS, 5 µg/ml, SNU-C1 cells
[21] = molecular target: human CEACAM6, full-length, on cells (human) (UniProt P40199); assay: FACS, 5 µg/ml, SW1116 cells
[22] = molecular target: human CEACAM6, full-length, on cells (human) (UniProt P40199); assay: FACS, transfected HeLa cells
[23] = molecular target: human CEACAM6, full-length, on cells (human) (UniProt P40199); assay: FACS, 5 µg/ml, HCC2998 cells
[24] = molecular target: human CEACAM6, full-length, on cells (human) (UniProt P40199); assay: FACS, 5 µg/ml, ZR-75-1 cells
[25] = molecular target: human CEACAM6, full-length, on cells (human) (UniProt P40199); assay: FACS, 5 µg/ml, HCC-2935 cells
[26] = molecular target: human CEACAM6, full-length, on cells (human) (UniProt P40199); assay: FACS, 5 µg/ml, NCI-H441 cells
[27] = molecular target: human CEACAM6, full-length, on cells (human) (UniProt P40199); assay: FACS, 5 µg/ml, NCI-H1437 cells
[28] = molecular target: human CEACAM6, full-length, on cells (human) (UniProt P40199); assay: FACS, 5 µg/ml, NCI-H1688 cells
[29] = molecular target: human CEACAM6, full-length, on cells (human) (UniProt P40199); assay: FACS, 5 µg/ml, NCI-H1993 cells
[30] = molecular target: human CEACAM6, full-length, on cells (human) (UniProt P40199); assay: FACS, 5 µg/ml, NCI-H2228 cells
[31] = molecular target: human CEACAM6, full-length, on cells (human) (UniProt P40199); assay: FACS, 5 µg/ml, RPMI-8226 cells
[32] = molecular target: human CEACAM6, full-length, on cells (human) (UniProt P40199); assay: FACS, 5 µg/ml, MCF7/AdrVp cells
[33] = molecular target: human CEACAM6, full-length, on cells (human) (UniProt P40199); assay: FACS, 5 µg/ml, MDA-MB-361 cells
[34] = molecular target: human CEACAM6, extracellular (mature form), R&D Systems 3934-CM (human) (UniProt P40199); assay: SPR, antibody captured, antigen as analyte
Sequence of human CEACAM6, extracellular (mature form), R&D Systems 3934-CM (human) (P40199 other isoform, or with tags, fused parts or gaps limits assumed): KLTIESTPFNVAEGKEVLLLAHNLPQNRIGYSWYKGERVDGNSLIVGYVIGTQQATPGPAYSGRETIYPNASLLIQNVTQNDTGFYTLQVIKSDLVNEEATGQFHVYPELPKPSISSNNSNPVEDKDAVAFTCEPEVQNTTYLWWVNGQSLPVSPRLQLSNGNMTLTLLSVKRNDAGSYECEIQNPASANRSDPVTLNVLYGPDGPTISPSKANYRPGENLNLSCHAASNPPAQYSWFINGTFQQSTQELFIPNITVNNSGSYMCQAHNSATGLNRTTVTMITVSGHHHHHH

Sequence of human CEACAM6, full-length, on cells (human) (P40199 35-320 V239G): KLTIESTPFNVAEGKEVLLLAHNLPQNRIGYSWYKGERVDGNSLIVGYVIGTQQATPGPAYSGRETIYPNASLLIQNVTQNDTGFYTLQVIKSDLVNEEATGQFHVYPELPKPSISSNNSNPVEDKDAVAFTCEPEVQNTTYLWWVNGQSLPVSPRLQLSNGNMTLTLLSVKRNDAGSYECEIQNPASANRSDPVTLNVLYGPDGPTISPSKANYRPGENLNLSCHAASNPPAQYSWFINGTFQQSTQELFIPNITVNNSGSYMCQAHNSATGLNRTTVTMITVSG

Q: For 9A6 (mouse IgG1) (antibody), which FACS median fluorescence (medianfluorescence) [1] is on record?
A: 1000 to 10000

Q: What about the FACS median fluorescence (medianfluorescence) [2] of the same substance?
A: 1000 to 10000

Q: And the FACS median fluorescence (medianfluorescence) [3]?
A: > 10000

Q: And the FACS median fluorescence (medianfluorescence) [4]?
A: 100 to 1000

Q: What about the FACS median fluorescence (medianfluorescence) [5] of the same substance?
A: 1000 to 10000

Q: And the FACS median fluorescence (medianfluorescence) [6]?
A: 100 to 1000

Q: What about the FACS median fluorescence (medianfluorescence) [7] of the same substance?
A: 10 to 100

Q: And the FACS median fluorescence (medianfluorescence) [8]?
A: 100 to 1000

Q: And the FACS median fluorescence (medianfluorescence) [9]?
A: 1000 to 10000

Q: What about the FACS median fluorescence (medianfluorescence) [10] of the same substance?
A: 10 to 100

Q: What about the FACS median fluorescence (medianfluorescence) [11] of the same substance?
A: 10 to 100

Q: And the FACS median fluorescence (medianfluorescence) [12]?
A: 100 to 1000

Q: What about the FACS median fluorescence (medianfluorescence) [13] of the same substance?
A: 1000 to 10000

Q: What about the FACS median fluorescence (medianfluorescence) [14] of the same substance?
A: 10 to 100

Q: What about the FACS median fluorescence (medianfluorescence) [15] of the same substance?
A: 1000 to 10000

Q: What about the FACS median fluorescence (medianfluorescence) [16] of the same substance?
A: 1000 to 10000

Q: What about the FACS median fluorescence (medianfluorescence) [17] of the same substance?
A: 10 to 100

Q: What about the FACS median fluorescence (medianfluorescence) [18] of the same substance?
A: 100 to 1000

Q: And the FACS median fluorescence (medianfluorescence) [19]?
A: 1000 to 10000

Q: And the FACS median fluorescence (medianfluorescence) [20]?
A: 100 to 1000

Q: And the FACS median fluorescence (medianfluorescence) [21]?
A: 1000 to 10000

Q: And the FACS median fluorescence (medianfluorescence) [22]?
A: 1000 to 10000

Q: And the FACS median fluorescence (medianfluorescence) [23]?
A: 100 to 1000

Q: And the FACS median fluorescence (medianfluorescence) [24]?
A: 100 to 1000

Q: What about the FACS median fluorescence (medianfluorescence) [25] of the same substance?
A: > 10000

Q: And the FACS median fluorescence (medianfluorescence) [26]?
A: 100 to 1000

Q: What about the FACS median fluorescence (medianfluorescence) [27] of the same substance?
A: 1000 to 10000

Q: What about the FACS median fluorescence (medianfluorescence) [28] of the same substance?
A: 10 to 100

Q: And the FACS median fluorescence (medianfluorescence) [29]?
A: 1000 to 10000

Q: What about the FACS median fluorescence (medianfluorescence) [30] of the same substance?
A: 100 to 1000

Q: What about the FACS median fluorescence (medianfluorescence) [31] of the same substance?
A: 10 to 100

Q: What about the FACS median fluorescence (medianfluorescence) [32] of the same substance?
A: 10 to 100

Q: What about the FACS median fluorescence (medianfluorescence) [33] of the same substance?
A: 1000 to 10000

Q: And the Kd [34]?
A: 22 nM

From patent publication US20200181261A1
